Biological target: T1, NgTet1 (Naegleria gruberi, UniProt D2W6T1 1-321)
T1 sequence: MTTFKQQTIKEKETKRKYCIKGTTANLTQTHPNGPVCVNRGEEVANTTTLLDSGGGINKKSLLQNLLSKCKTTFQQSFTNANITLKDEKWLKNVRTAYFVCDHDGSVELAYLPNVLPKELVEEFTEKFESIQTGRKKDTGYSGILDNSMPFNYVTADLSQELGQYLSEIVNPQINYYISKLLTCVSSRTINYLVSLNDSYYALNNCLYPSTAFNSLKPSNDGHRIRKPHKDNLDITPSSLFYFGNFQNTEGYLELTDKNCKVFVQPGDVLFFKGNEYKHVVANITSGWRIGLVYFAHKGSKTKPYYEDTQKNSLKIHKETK
Assay: X-ray crystallography

B1: 14-bp fully methylated CpG DNA (dsDNA)
DNA 1: TGGAACGCAATTCT
DNA 2: AGAATTGCGTTCCA
modifications: 5mC at position 6 of strand 1 and position 8 of strand 2
B1: binds.

From PMC4364404
